Measurements published in the supplement of paper PMC10724198.
± gives the standard deviation of the averaged measurements.

Legend:
[1] = tested on: Saccharomyces cerevisiae; test: protein stability index of tFT-peptide fusion (C-terminal peptide) (PSI (0-1 scale)); higher = more stable (slower turnover)
Description: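 MPS profiling in S. cerevisiae of the tFT-X12 degron library: putative degron peptides plus stable controls, 12 aa, fused to the C-terminus of a sfGFP-mCherry timer. Cells are FACS-sorted into 8 mCherry/sfGFP bins and deep-sequenced. PSI runs from 0 (unstable) to 1 (stable). Backgrounds are wild type, das1Δ and doa10Δ at 30 °C, and wild type, das1Δ, cdc34-1 and cdc53-1 at 37 °C; 2-3 technical replicates each.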

[2] = tested on: Saccharomyces cerevisiae; test: as above; conditions: genetic background: wild type; temperature: 30 C
[3] = genetic background: cdc34-1, temperature: 37 C
[4] = genetic background: cdc53-1, temperature: 37 C
[5] = genetic background: das1 deletion, temperature: 30 C
[6] = genetic background: das1 deletion, temperature: 37 C
[7] = genetic background: doa10 deletion, temperature: 30 C
[8] = genetic background: wild type, temperature: 30 C
[9] = genetic background: wild type, temperature: 37 C
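Also: PSI is a weighted mean of sequencing reads over stability bins, variants kept only with over 10 reads, mCherry proximal and sfGFP distal, peptide attached via GGGS linker.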

| Sequence | protein stability index [2] | further results |
| --- | --- | --- |
| LPLPPPGSPPPL | – | protein stability index [1, 3]: 0.653 ± 0.032; protein stability index [1, 4]: 0.744 ± 0.036; protein stability index [1, 5]: 0.668 ± 0.021; protein stability index [1, 6]: 0.726 ± 0.0077; protein stability index [1, 7]: 0.659 ± 0.014; protein stability index [1, 8]: 0.682 ± 0.033; protein stability index [1, 9]: 0.698 ± 0.0069 |
| RDTTQRRRKTAA | – | protein stability index [1, 3]: 0.657 ± 0.039; protein stability index [1, 4]: 0.662 ± 0.026; protein stability index [1, 5]: 0.6608 ± 0.0048; protein stability index [1, 6]: 0.6583 ± 0.005; protein stability index [1, 7]: 0.443 ± 0.0084; protein stability index [1, 8]: 0.448 ± 0.012; protein stability index [1, 9]: 0.60824 ± 0.00016 |
| KYIGHSENATSK | 0.71 ± 0.067 | – |
| NEINKPTRSQTA | 0.644 ± 0.04 | – |
| DSMLTYIRSTKD | 0.633 ± 0.007 | – |
| NNMNRKKGKKKT | 0.7027 ± 0.0018 | – |
| SGRRRAPPAPSP | 0.732 ± 0.037 | – |
| SPSRVSYFFFFS | 0.641 ± 0.059 | – |
| LRTRKKTIDHHN | 0.663 ± 0.013 | – |
| IVNNVKYKNRNR | 0.715 ± 0.071 | – |
| NIPAAGCPRATA | 0.711 ± 0.033 | – |
| NTQSRNKSYTER | 0.671 ± 0.0091 | – |
| FVFGSVLPGPTC | 0.692 ± 0.0098 | – |
| PLPRSPRPSAPP | 0.622 ± 0.034 | – |
| IYPPALLSSSFL | 0.709 ± 0.093 | – |
| VGVTLSSFSRLP | 0.693 ± 0.085 | – |
| PPPPGSKPPPSP | 0.722 ± 0.028 | – |
| STPSLPPPPPSS | 0.6806 ± 0.006 | – |
| GGLICRQGVGRG | 0.748 ± 0.033 | – |
| YTSELPVLARRH | 0.633 ± 0.021 | – |
| PPPLATPTPTRP | 0.688 ± 0.17 | – |
| GGGVLLWEGGGW | 0.711 ± 0.02 | – |
| SRVWACCGVIGV | 0.667 ± 0.067 | – |
| SGPAVLPTFVSP | 0.65 ± 0.077 | – |

| Sequence | protein stability index [2] | further results |
| --- | --- | --- |
| RFNGWRDKEAME | 0.707 ± 0.036 | – |
| GLVGRGGAVGEW | 0.68596 ± 0.00038 | – |
| KLGNVRGPSYSL | 0.709 ± 0.056 | – |
| GSGLVTRTSLDY | 0.726 ± 0.045 | – |
| PYRPPPPLALSL | 0.693 ± 0.015 | – |
| CRFYKYIRNMFR | 0.674 ± 0.074 | – |
| SLVWVGGRRWPI | 0.73 ± 0.023 | – |
| GCYGRVLELAWR | 0.552 ± 0.035 | – |
| TLATHCDVHFTR | 0.734 ± 0.077 | – |
| KKKKKSKKQKKK | 0.733 ± 0.019 | – |
| DQVWGGSEDNTV | 0.76 ± 0.052 | – |
| ADRTLLLKQWYG | 0.682 ± 0.037 | – |
| RSRRDTDFGLLI | 0.717 ± 0.11 | – |
| SSLLSLPLRCSF | 0.717 ± 0.039 | – |
| GPSIYGFEESFS | 0.691 ± 0.0093 | – |
| HGGCLGGYGGGG | 0.661 ± 0.036 | – |
| PPPPPPSPPLSP | 0.677 ± 0.028 | – |
| GSYDLMGFQFFI | 0.632 ± 0.029 | – |
| PPRPLPPSLPPP | 0.695 ± 0.037 | – |
| RDPTTYGRSKEN | 0.655 ± 0.023 | – |
| KRTEHTHDRKIK | 0.721 ± 0.034 | – |
| CVCPLPLDSPVS | 0.629 ± 0.081 | – |
| RATLPPSAASLP | 0.677 ± 0.1 | – |
| EPTGEPKQKKEG | 0.707 ± 0.035 | – |

| Sequence | protein stability index [2] | further results |
| --- | --- | --- |
| FSGISVMCLFSG | 0.687 ± 0.12 | – |
| NASVRMFIRTGC | 0.6971 ± 0.00097 | – |
| VLGCWEAPFVRC | 0.62 ± 0.1 | – |
| TGRAPGSDVLAS | 0.7139 ± 0.0029 | – |
| KKTLWRKITMQK | 0.7193 ± 0.0057 | – |
| TLFSNILRSPHS | 0.696 ± 0.035 | – |
| PLGVPPPAPSSP | 0.6943 ± 0.0024 | – |
| SCLRFCSFGSPF | 0.757 ± 0.12 | – |
| WVLRRVGTVVYL | 0.585 ± 0.018 | – |
| PRPPLPPASPPL | 0.595 ± 0.044 | – |
| LVSCPPPPAPPP | 0.659 ± 0.06 | – |
| VGGVRGAGCVRG | 0.705 ± 0.024 | – |
| LSLFLAWSLFFL | 0.487 ± 0.083 | – |
| PSIKRSVKPFSP | 0.857 ± 0.2 | – |
| SPVGRRTLPSGF | 0.692 ± 0.023 | – |
| GGPHYVYPFCSF | 0.699 ± 0.019 | – |
| VLGGVWAWWVGF | 0.663 ± 0.022 | – |
| TKCGESRENARI | 0.681 ± 0.022 | – |
| GISFFPVGGPLI | 0.735 ± 0.062 | – |
| LAGLNDSVRRAV | 0.749 ± 0.036 | – |
| LVLPASSPCLFF | 0.647 ± 0.034 | – |
| ACCIFAFHRSLS | 0.487 ± 0.032 | – |
| HWPSGGGGPASH | 0.753 ± 0.037 | – |
| VECPFGTAGCHI | 0.659 ± 0.057 | – |

| Sequence | protein stability index [2] | further results |
| --- | --- | --- |
| ALEFNGLVAGRL | 0.727 ± 0.081 | – |
| MGVHKQQMRGQR | 0.682 ± 0.036 | – |
| VVFTSISFGLFV | 0.572 ± 0.044 | – |
| SEICGAPLARLR | 0.707 ± 0.034 | – |
| PPLPLPPPIRPP | 0.6388 ± 0.0037 | – |
| CSAESASPAERY | 0.6541 ± 0.0013 | – |
| PCSVLVWGVLLP | 0.622 ± 0.032 | – |
| LRVGGKRREVMG | 0.709 ± 0.055 | – |
| PPPPRPPPPATL | 0.662 ± 0.02 | – |
| SGFLLVLRRPRE | 0.655 ± 0.05 | – |
| LVICPRVLRDFR | 0.663 ± 0.05 | – |
| HHTQPLKSIKKN | 0.708 ± 0.037 | – |
| AAVPPLSQSPDS | 0.674 ± 0.03 | – |
| AQSPRFPYRNYH | 0.693 ± 0.049 | – |
| RVLGEGKCCIRV | 0.6063 ± 0.0056 | – |
| PPARIFRSLPTP | 0.711 ± 0.047 | – |
| KDFGYKKKNRRY | 0.734 ± 0.032 | – |
| PFYTKSASPSSR | 0.669 ± 0.02 | – |
| ERGALNRKDTRG | 0.662 ± 0.023 | – |
| PPRSPHLPRSSL | 0.664 ± 0.069 | – |
| RLDAGASAAFKG | 0.7184 ± 0.00093 | – |
| LPSPPPAPTPGP | 0.681 ± 0.019 | – |
| EVASMSCPVFLF | 0.652 ± 0.03 | – |
